These results are taken from patent US9429584B2, “Antibody against insoluble fibrin” (National Cancer Center, priority 2013, dated 2016).

This test addresses T1, insoluble fibrin (Homo sapiens, UniProt P02675+P02679).
T1 sequence (P02675 45-491 limits assumed): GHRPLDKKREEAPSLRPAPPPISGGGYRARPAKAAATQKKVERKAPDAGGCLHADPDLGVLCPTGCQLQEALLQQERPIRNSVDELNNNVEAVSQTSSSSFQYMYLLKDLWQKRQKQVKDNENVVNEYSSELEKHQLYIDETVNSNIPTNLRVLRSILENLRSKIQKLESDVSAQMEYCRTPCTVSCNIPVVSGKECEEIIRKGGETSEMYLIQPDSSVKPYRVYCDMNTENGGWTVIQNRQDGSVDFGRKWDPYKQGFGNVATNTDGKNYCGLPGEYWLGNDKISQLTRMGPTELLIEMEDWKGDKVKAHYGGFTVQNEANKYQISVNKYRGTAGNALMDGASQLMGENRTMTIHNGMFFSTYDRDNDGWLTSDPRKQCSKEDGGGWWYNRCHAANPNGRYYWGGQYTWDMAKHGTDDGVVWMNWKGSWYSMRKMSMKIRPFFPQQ
T1 sequence (P02679 27-453): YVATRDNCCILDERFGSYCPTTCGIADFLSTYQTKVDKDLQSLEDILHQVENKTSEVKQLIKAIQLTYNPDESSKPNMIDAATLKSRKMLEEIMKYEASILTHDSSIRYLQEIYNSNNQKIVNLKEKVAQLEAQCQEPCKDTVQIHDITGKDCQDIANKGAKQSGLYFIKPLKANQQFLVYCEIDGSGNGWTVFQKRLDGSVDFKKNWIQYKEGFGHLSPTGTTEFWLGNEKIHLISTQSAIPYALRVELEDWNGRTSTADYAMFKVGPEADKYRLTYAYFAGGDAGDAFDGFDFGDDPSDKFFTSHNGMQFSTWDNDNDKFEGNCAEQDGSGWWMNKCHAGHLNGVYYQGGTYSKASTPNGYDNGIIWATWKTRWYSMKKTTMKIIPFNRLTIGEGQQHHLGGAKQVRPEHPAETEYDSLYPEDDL
Nature of the test: ELISA method of Example 2, fibrin plate. The format is binding. The following applies: antibody 10 μg/mL. On the procedure:
Each of the antibody solutions (100 μL each) at 10 μg/mL was added to the fibrin plate and the fibrinogen plate, and allowed to stand at room temperature for 1 hour. After washing with TBS-T, Bethyl Anti-Human IgG-HRP (×1000 dilution) or Bethyl Anti-Mouse IgG-HRP (×10000 dilution) was added as a secondary antibody. Then, after washing with TBS-T, colorimetry was conducted with OPD for 10 minutes, and measurement was conducted at an absorption wavelength of 492 nm.
For orientation: ELISA stands for enzyme-linked immunosorbent assay.

B1: 34-105 antibody: monoclonal anti-γ chain antibody produced by hybridoma 34-105; L chain variable region SEQ ID NO: 3, H chain variable region SEQ ID NO: 7 (antibody, listed as Mus musculus, V domains shown)
VH: EVKLQESGGGLVKPGGSLKLSCAASGFTFSSYAMSWVRQTPEKRLEWVAAISSGGTTYYPDSVKGRFTISRDNARNILYLQMSSLRSEDTAMYYCVRGGTIGAYWGQGTLVTVSA
VL: DIVITQSPASLAVSLGQRATISYRASKSVSTSGYSYMHWNQQKPGQPPRLLIYLVSNLESGVPARFSGSGSGTDFTLNIHPVEEEDAATYYCQHIRELTRSEGGPSWK
modifications: SITE (1)..(115) Variable Region of Heavy Chain (34-105); SITE (1)..(108) Variable Region of Light Chain(34-105)
For B1, the “affinity for insoluble fibrin (absorbance at 492 nm) relative to that of the 102-10 antibody” value was 16 times and the “ratio of the affinity for insoluble fibrin to the affinity for fibrinogen (absorbance at 492 nm)” value came out at 25 times.

B2: Fib-0355 antibody: monoclonal anti-β chain antibody produced by hybridoma Fib-0355; L chain variable region SEQ ID NO: 11, H chain variable region SEQ ID NO: 15 (antibody, listed as Mus musculus, V domains shown)
VH: GPELKKPGETVKISCKASGYTFTNYGMNWVKQAPGKGLKWMGWINTNTGEPTYAEEFKGRFAFSLETSASTAYLQINNLKNEDTATYFCARLLDYWGQGTTLTVSS
VL: PSSLAVSAGEKVTMSCKSSQSVLYSSNQKNYLAWYQQKPGQSPKLLIYWASTRESGVPDRFTGSGSGTDFTLTISSVQAEDLAVYYCQQYLSSYTFGG
modifications: SITE (1)..(106) Variable Region of Heavy Chain (Fib-0355); SITE (1)..(98) Variable Region of Light Chain(Fib-0355)
As for B2, the “affinity for insoluble fibrin (absorbance at 492 nm) relative to that of the 102-10 antibody” value is 12 times.
